Laboratory results from the DeepSol protein solubility set.

test: soluble on expression in E. coli; label from the status in PepcDB or PDB records

| Sequence | soluble on expression in E. coli |
| --- | --- |
| MSAPLFSVVVPAYNQHKFIDSCLTSLQRQTLTDFEVFVVDDCSTDDTGEQIAALIKGDDRFHVITHAHNRGVSAARNSGMAAAKGKYLCFVDGDDWVEPDFLATFLAAYRSAPDTQLVVCGHYGYLAVPSPAKTYNQKDLIANINFGTVGGFSWNKAFIRSIITTHHLKFNEDIDFLEDQLFAFRYANYVQSSEYVPDRTYHYRWRFRSNLAHIGIPFFTARRKMMKILKQENKQVLNEDWNNQ | not soluble |
| MSLKIEPKIFDELKTALVSFGDKYFVGEELNRSKLADDLRNYDEALLSKLFEVDFIMQHFVKEVAGQKLFQIEQLEEAVLYNDYWDTSYTKYENRVGLASKGKFLQDSQDVVLDFPFKDCVLTASMTKENNEEGYDDAFLNEVIEKDEIDRLFDKKVFVNVKRFGDNQGAQHSTAVDNEIVSFDKEKDNLIIKGNNLLALHALKNEFAGKVRQIYIDPPYNTGKDSFNYNDKFNHSSWLVFMKNRLEIAWELLSDDGTIWISIDGYESHYLKVLADGIFGAENFLDEVVWQRAYAPINLKKTFSKSHDYILVYAKNNSGAKELNRLPRKAEMVASYKNPDNDPRGVYKADNFSVGPAVEKNIYEITTPSGRKVLPPDGYSWRFSKERFEELLADNRVYFGKDGNSAPSYKRFLSEVKDGVVAQTLWTYQEVGHNQDAKKEIKSLFDGQTAFGTPKPEKLIQRILTLGSDENDLVLDFFMGSATTQAVAMKMNRRFIGIEQMDYISTVSVPRLQKVIEGEQGGISKDVNWQGGGSFVYAELFPKNMGYLQDVIHAKDLEELKSVYERMLSGTDTDEPADISFRADLSKIDWLQGFDENKRLLVKLLDKNGLYYNYSEIDDKNVRDLISDEDYTFNKNFYEGGEGHHHHHH | soluble |
| MSLYSTDSGNLFHAGRILVVLVGLPATSKTLLSVAITRYTRWLGVRTKSFHFSEYKESAKNIPSDYFCVVPTSKEGVAFVEKLRMQMLNDILAFFNDLSGQLAIYDALNIRKIDRKNLETTFSEIGVKVLFIESIVSDQEIMNRNIALALESNDYKGLSTDEAIDEYMRRLSVNEPYYEMMTHDEELSYIKYINLGKQIIVKDNIHGYLVNKIVFFLMNLRQKKGCVYFARCGTSDKDNYIHDEELNEEGIHYSQVLKDFVLQRIKQKRQAKKNSDSLVEVIDGSHDEDLKTSLIVWTGPRKRTHDTALFFSKEGIKVQQRSELRQLNPGSIADLTDQQIMDKFPSEYKESLKDPYHFRFPRAESYHDLAVRMEPLLLEMEHTSKDILIIAHESTLRVLYGYLMACTCVELPNLNFTRDKLVEISFSPFCNTVELLNIPLTEGHHHHHH | soluble |
| MSHPWRSRGEKRTIMFGYTPSDTILKYLKDMRDLINRAILNAYSIARSNDDSLPSPITLRRSLKDYYDNNVAYAKHHINPVCRTAIAMLRSYKKNNGRLKVVKAKRLAMRIDSELAKIEDNRLRITIRPNVYEYVDIVDRNKKYSEYSKYPISEVLLTDNRVYITFITGSDDKPVIANNIIGFDLNFKSVDYTVIKDNRIAYVDSIDTYDIAKTQRDYERKRRKIQKHIRNPAKRIRKLKEAKHRQRNIVRDKLQKLTTNIVKNNEDKTFVFEDLTNIKKKGKKHKDHKRDGQSSKRFRTDINRWPYRLFQMFVEYKSKNETLYVDPEGTSSECPVCGGILEHPIWKMSKCDNCGATFDRDRLSSLSIAVRGLHLCGTPFSVSGSASWDSMKDNYLYR | not soluble |
| MGSDKIHHHHHHVSNGAATRVRRSREKILGAAESVFLQHGFLGTNMDVIADTAGVSKQTVYAHFKSKEALFIDVVEAMTGGAAEEIGEDIEDVFGDRKAEDYLLEVAIDQLTVVLTPRLMQLRRMVIGEVERFPELGRSLYVNGPIRSITRLTRACAHYTRIGELITPDPQAAATQFNWIVMGAPTNAAMLLGDAGIPTSAQLQAHATEAVRIFLCAYGAKQMHPR | not soluble |
| MAHHHHHHMAVLIKNNEASLVDMAVQDFIKLGIDGVYTTMKTVVSFEYIFNFTSHMRNLHKYSTNFLELQINGHNKECVTNILQNLTLENIRKSTSTSIKAGFEFINTLNDDIKKKYFSENLNYMVMVTITWDIHTDNRIPSNEPFSILCYIKCLPKHSNNVQIDIMCGERKTPNIKYSNVFDVRNKMLKLKSEDSHEVVLYNEKEEITEGLTCNFFCFFNDTLYTAKDELVLKGTMREQIIQICEEVGITLKRKVST | not soluble |
| MAKAVGIDLGTTNSVIAVLEGGKPVVLENAEGERVTPSVVAFRDGETLVGRMAKRQAVLNPEGTIFEIKRFIGRRFEEVQEEAKRVPYKVVPGPDGGVRVEVKGKLYTPEEISAMILRKLVEDASKKLGEKITKAVITVPAYFNNAQREATANAGRIAGLEVLRIINEPTAAALAYGLDKKGNETVLVFDLGGGTFDVTILEIGEGVFEVKATSGDTHLGGSDMDHAIVNWLAEEFKKEHGVDLKADRQALQRLIEAAEKAKIELSSTLETTISLPFIALDPASKTPLHLEKKLTRAKFEELIQPLLKRLRGPVEQALKDAGLTPAQIDEVILVGGATRVPAVQQVVRELLGKEPNRSVNPDEVVAMGAAIQAGVLMGEVRDVVLLDVTPLSLGVETKGGVMTVLIPRNTTIPTRKCEIFTTAEHNQTAVKSIVFQGKRPMAQDNKSLGRFRLEGIPPMPAGVPQIEVCFDIDANGILHVTAKERSTGREASITIQNTTTLSEEEIQRIIEEAKRHAEEDRRRREHAELKNALDSARVQAERVLQERQGAPEARARLEAAIGKAKELVERDAPDPELKAATEELLKAVEEYEKGAQAASGKGPDDVIDADYKPAD | soluble |
| MRGSHHHHHHGSADAYPSKAIRVIVPFAPGGSTDIIARLVTQRMSQELGQPMVVENKGGAGGAIGASEAARAEPDGYTLSIATVSTMAVNPACRPKDLPYDPIKDFQPVTNFANTANVVAVNPKFPAKDFKGFLEELKKNPGKYSYGSSGTCGVLHLMGESFKMATGTDIVHVPYKGSGPAVADAVGGQIELIFDNLPSSMPQIQAGKLRAMAIAWPTRIDAIKDVPTFADAGFPVLNQPVWYGLLAPKGTPMDVVNKLRDAAVVALKDPKVIKALDDQGSAPSGNTPEEFAKEIKEQYDWAQDVVKKQNIKLD | soluble |
| MSLHYQPKQDLLQNRIILVTGASDGIGREAALTYARYGATVILLGRNEEKLRRVAQHIADEQHVQPQWFTLDLLTCTAEECRQVADRIAAHYPRLDGVLHNAGLLGEIGPMSEQDPQIWQDVMQVNVNATFMLTQALLPLLLKSDAGSLVFTSSSVGRQGRANWGAYATSKFATEGMMQVLADEYQNRSLRVNCINPGGTRTSMRASAFPTEDPQKLKTPADIMPLYLWLMGDDSRRKTGMTFDAQPGRKEGHHHHHH | soluble |
| GSHHHHHHSSGLVPRGSFNELNAINENIRDDLSALLKSDFFKYFRLDLYKQCSFWDANDGLCLNRACSVDVVEDWDTLPEYWQPEILGSFNNDTMKEADDSDDECKFLDQLCQTSKKPVDIEDTINYCDVNDFNGKNAVLIDLTANPERFTGYGGKQAGQIWSTIYQDNCFTIGETGESLAKDAFYRLVSGFHASIGTHLSKEYLNTKTGKWEPNLDLFMARIGNFPDRVTNMYFNYAVVAKALWKIQPYLPEFSFCDLVNKEIKNKMDNVISQLDTKIFNEDLVFANDLSLTLKDEFRSRFKNVTKIMDCVQCDRCRLWGKIQTTGYATALKILFEINDADEFTKQHIVGKLTKYELIALLQTFGRLSESIESVNMFEKMYGKRLLER | soluble |
| FNSSINNIHEMEIQLKDALEKNQQWLVYDQQREVYVKGLLAKIFELEKKTETAAHSLP | soluble |
| MGSDKIHHHHHHMSNQYHNFNSQIESHILFYGHQKCKPDEYFDGTNLRKNDILYYVLDGKGTFNSSGHHVAKLAKGDLFLVPRSRTCYFEADHDNPWEYFWIGLSGAGTNEMIKASNLPNKNFLRQIQKTEFFETLKELYSTLNEDSSLLNNVKIASLTYQLFYHLIDEFPNHPSIRKTPKIDQYQIAIDYLNKNYTDPTCNIVELCNRLGVSRSFLYSLFRKNTKISPQKYLMQLRMEAAKKELLNTTHNLKEIARKVGYGDEFTFSKAFKRYSGVSPNVFRGK | not soluble |
| MLFDLGYVDLQDRSNAEILTHLITKKAILLLGDKQNPADLLAIQDEVQERYLVNFSLFQSMPDFWGLEQNFPIMPLDRLDEEPTRSASIWDITCDSDGEISYSKDKPLFLHDVDVEKENYFLGFFLVGAYQEVLGMKHNLFTHPTEAIISINEKGYEVEGIIEAQSILDTLEDLDYDIHAILEHHHHHH | not soluble |
